B1: TatC with C-terminal hexahistidine tag, wild type (TatABC system) [E. coli] / TatA [E. coli] (parent)
chain 1: MGGISIWQLLIIAVIVVLLFGTKKLGSIGSDLGASIKGFKKAMSDDEPKQDKTSQDADFTAKTIADKQADTNQEQAKTEDAKRHDKEQV
chain 2: MSVEDTQPLITHLIELRKRLLNCIIAVIVIFLCLVYFANDIYHLVSAPLIKQLPQGSTMIATDVASPFFTPIKLTFMVSLILSAPVILYQVWAFIAPALYKHERRLVVPLLVSSSLLFYIGMAFAYFVVFPLAFGFLANTAPEGVQVSTDIASYLSFVMALFMAFGVSFEVPVAIVLLCWMGITSPEDLRKKRPYVLVGAFVVGMLLTPPDVFSQTLLAIPMYCLFEIGVFFSRFYVGKGRNREEENDAEAESEKTEE
B2: TatC with C-terminal hexahistidine tag, wild type (TatABC system) [E. coli] / TatB [E. coli] (parent)
chain 1: MFDIGFSELLLVFIIGLVVLGPQRLPVAVKTVAGWIRALRSLATTVQNELTQELKLQEFQDSLKKVEKASLTNLTPELKASMDELRQAAESMKRSYVANDPEKASDEAHTIHNPVVKDNEAAHEGVTPAAAQTQASSPEQKPETTPEPVVKPAADAEPKTAAPSPSSSDKP
chain 2: B1 chain 2

Variants of: B1
Test: affinity purification (H6-tagged TatC) with SDS-PAGE/Western-blot band quantification
Conditions: eight replicates, read off a plot

| response [signal ratio] | Variant |
| --- | --- |
| 1.3 | chain 2 I50Y |
| 1.6 | chain 2 Y154A |
| 0.67 | chain 2 L189A |

Variants of: B2
Test: as above
Conditions: eight replicates, read off a plot

| response [signal ratio] | Variant |
| --- | --- |
| 0.81 | chain 2 Y154A |
| 0.86 | chain 2 I50Y |
| 0.97 | chain 2 L189A |
